# According to patent publication US20150328292A1, “CASPASE POLYPEPTIDES HAVING MODIFIED ACTIVITY AND USES THEREOF” (BELLICUM PHARMACEUTICALS, INC., priority 2014, published 2015):
# System: HEK293T/16 cells
# Assay: SEAP reporter-based surrogate killing assay (basal activity and AP1903 IC50)
# Assay type: cell-based, human
# Settings: AP1903-independent SEAP activity, vs wild type
# Protocol: FIG. 45 provides a schematic of an analysis of SEAP assays. […] of the mixture was seeded onto each well of a 96-well plate. […] For the assay, 4-methylumbelliferyl phosphate substrate was hydrolyzed by SEAP to 4-methylumbelliferon, a metabolite that can be excited with 364 nm and detected with an emission filter of 448 nm. Since SEAP is used as a marker for cell viability, reduced SEAP reading corresponds with increased icaspase-9 activities.
# Early passage HEK293T/16 cells (ATCC, Manassas, Va.) were maintained in IMDM, GlutaMAX™ (Life Technologies, Carlsbad, Calif.) supplemented with 10% FBS, 100 U/mL penicillin, and 100 […] until transfection in a humidified, 37° C., 5% CO2/95% air atmosphere. Cells in logarithmic-phase growth were transiently transfected with 800 ng to 2 μg of expression plasmid encoding iCasp9 mutants and 500 ng of an expression plasmid encoding SRα promoter driven SEAP per million cells in 15-mL conical tubes. […] GeneJammer® Transfection Reagent at a ratio of 3 μl per ug of plasmid DNA was used to transiently transfect HEK293T/16 cells in the absence of antibiotics. 100 μl or 2 mL of the transfection mixture was added to each well in 96-well or 6-well plate, respectively.
# Briefly, after 65° C. heat denaturation for 45 minutes to reduce background caused by endogenous (and serum-derived) alkaline phosphatases that are sensitive to heat, 5 μl of supernatants was added to 95 μl of PBS and added to 100 μl of substrate buffer, containing 1 μl of 100 mM 4-methylumbelliferyl phosphate (4-MUP; Sigma, St. Louis, Mo.) re-suspended in 2 M diethanolamine. Hydrolysis of 4-MUP by SEAP produces a fluorescent […] with excitation/emission (355/460 nm), which can be easily measured. Assays were performed in black opaque 96-well plates to minimize fluorescence leakage between wells (FIG. 45).
row,Molecule,basal activity / basal signaling (in words)
1,"N405A: chimeric modified caspase-9 polypeptide variant (protein, UniProt P55211 1-416, looked up, variant N405A, chimeric, fused to FKBP12v36, chimeric modified caspase-9 polypeptide variant) MDEADRRLLRRCRLRLVEELQVDQLWDALLSRELFRPHMIEDIQRAGSGSRRDQARQLIIDLETRGSQALPLFISCLEDTGQDMLASFLRTNRQAAKLSKPTLENLTPVVLRPEIRKPEVLRPETPRPVDIGSGGFGDVGALESLRGNADLAYILSMEPCGHCLIINNVNFCRESGLRTRTGSNIDCEKLRRRFSSLHFMVEVKGDLTAKKMVLALLELAQQDHGALDCCVVVILSHGCQASHLQFPGAVYGTDGCPVSVEKIVNIFNGTSCPSLGGKPKLFFIQACGGEQKDHGFEVASTSPEDESPGSNPEPDATPFQEGLRTFDQLDAISSLPTPSDIFVSYSTFPGFVSWRDPKSGSWYVETLDDIFEQWAHSEDLQSLLLRVANAVSVKGIYKQMPGCFAFLRKKLFFKTS",no effect
2,"N405T: chimeric modified caspase-9 polypeptide variant (protein, UniProt P55211 1-416, looked up, variant N405T, chimeric, fused to FKBP12v36, chimeric modified caspase-9 polypeptide variant) MDEADRRLLRRCRLRLVEELQVDQLWDALLSRELFRPHMIEDIQRAGSGSRRDQARQLIIDLETRGSQALPLFISCLEDTGQDMLASFLRTNRQAAKLSKPTLENLTPVVLRPEIRKPEVLRPETPRPVDIGSGGFGDVGALESLRGNADLAYILSMEPCGHCLIINNVNFCRESGLRTRTGSNIDCEKLRRRFSSLHFMVEVKGDLTAKKMVLALLELAQQDHGALDCCVVVILSHGCQASHLQFPGAVYGTDGCPVSVEKIVNIFNGTSCPSLGGKPKLFFIQACGGEQKDHGFEVASTSPEDESPGSNPEPDATPFQEGLRTFDQLDAISSLPTPSDIFVSYSTFPGFVSWRDPKSGSWYVETLDDIFEQWAHSEDLQSLLLRVANAVSVKGIYKQMPGCFTFLRKKLFFKTS",increased basal activity
3,"N405F: chimeric modified caspase-9 polypeptide variant (protein, UniProt P55211 1-416, looked up, variant N405F, chimeric, fused to FKBP12v36, chimeric modified caspase-9 polypeptide variant) MDEADRRLLRRCRLRLVEELQVDQLWDALLSRELFRPHMIEDIQRAGSGSRRDQARQLIIDLETRGSQALPLFISCLEDTGQDMLASFLRTNRQAAKLSKPTLENLTPVVLRPEIRKPEVLRPETPRPVDIGSGGFGDVGALESLRGNADLAYILSMEPCGHCLIINNVNFCRESGLRTRTGSNIDCEKLRRRFSSLHFMVEVKGDLTAKKMVLALLELAQQDHGALDCCVVVILSHGCQASHLQFPGAVYGTDGCPVSVEKIVNIFNGTSCPSLGGKPKLFFIQACGGEQKDHGFEVASTSPEDESPGSNPEPDATPFQEGLRTFDQLDAISSLPTPSDIFVSYSTFPGFVSWRDPKSGSWYVETLDDIFEQWAHSEDLQSLLLRVANAVSVKGIYKQMPGCFFFLRKKLFFKTS",lowered basal activity
4,"G402I: chimeric modified caspase-9 polypeptide variant (protein, UniProt P55211 1-416, looked up, variant G402I, chimeric, fused to FKBP12v36, chimeric modified caspase-9 polypeptide variant) MDEADRRLLRRCRLRLVEELQVDQLWDALLSRELFRPHMIEDIQRAGSGSRRDQARQLIIDLETRGSQALPLFISCLEDTGQDMLASFLRTNRQAAKLSKPTLENLTPVVLRPEIRKPEVLRPETPRPVDIGSGGFGDVGALESLRGNADLAYILSMEPCGHCLIINNVNFCRESGLRTRTGSNIDCEKLRRRFSSLHFMVEVKGDLTAKKMVLALLELAQQDHGALDCCVVVILSHGCQASHLQFPGAVYGTDGCPVSVEKIVNIFNGTSCPSLGGKPKLFFIQACGGEQKDHGFEVASTSPEDESPGSNPEPDATPFQEGLRTFDQLDAISSLPTPSDIFVSYSTFPGFVSWRDPKSGSWYVETLDDIFEQWAHSEDLQSLLLRVANAVSVKGIYKQMPICFNFLRKKLFFKTS",catalytically inactive
5,"G402Q: chimeric modified caspase-9 polypeptide variant (protein, UniProt P55211 1-416, looked up, variant G402Q, chimeric, fused to FKBP12v36, chimeric modified caspase-9 polypeptide variant) MDEADRRLLRRCRLRLVEELQVDQLWDALLSRELFRPHMIEDIQRAGSGSRRDQARQLIIDLETRGSQALPLFISCLEDTGQDMLASFLRTNRQAAKLSKPTLENLTPVVLRPEIRKPEVLRPETPRPVDIGSGGFGDVGALESLRGNADLAYILSMEPCGHCLIINNVNFCRESGLRTRTGSNIDCEKLRRRFSSLHFMVEVKGDLTAKKMVLALLELAQQDHGALDCCVVVILSHGCQASHLQFPGAVYGTDGCPVSVEKIVNIFNGTSCPSLGGKPKLFFIQACGGEQKDHGFEVASTSPEDESPGSNPEPDATPFQEGLRTFDQLDAISSLPTPSDIFVSYSTFPGFVSWRDPKSGSWYVETLDDIFEQWAHSEDLQSLLLRVANAVSVKGIYKQMPQCFNFLRKKLFFKTS",catalytically inactive
6,"G402Y: chimeric modified caspase-9 polypeptide variant (protein, UniProt P55211 1-416, looked up, variant G402Y, chimeric with dimerization domain, chimeric modified caspase-9 polypeptide variant) MDEADRRLLRRCRLRLVEELQVDQLWDALLSRELFRPHMIEDIQRAGSGSRRDQARQLIIDLETRGSQALPLFISCLEDTGQDMLASFLRTNRQAAKLSKPTLENLTPVVLRPEIRKPEVLRPETPRPVDIGSGGFGDVGALESLRGNADLAYILSMEPCGHCLIINNVNFCRESGLRTRTGSNIDCEKLRRRFSSLHFMVEVKGDLTAKKMVLALLELAQQDHGALDCCVVVILSHGCQASHLQFPGAVYGTDGCPVSVEKIVNIFNGTSCPSLGGKPKLFFIQACGGEQKDHGFEVASTSPEDESPGSNPEPDATPFQEGLRTFDQLDAISSLPTPSDIFVSYSTFPGFVSWRDPKSGSWYVETLDDIFEQWAHSEDLQSLLLRVANAVSVKGIYKQMPYCFNFLRKKLFFKTS",catalytically inactive
7,"C403P: chimeric modified caspase-9 polypeptide variant (protein, UniProt P55211 1-416, looked up, variant C403P, chimeric, fused to FKBP12v36, chimeric modified caspase-9 polypeptide variant) MDEADRRLLRRCRLRLVEELQVDQLWDALLSRELFRPHMIEDIQRAGSGSRRDQARQLIIDLETRGSQALPLFISCLEDTGQDMLASFLRTNRQAAKLSKPTLENLTPVVLRPEIRKPEVLRPETPRPVDIGSGGFGDVGALESLRGNADLAYILSMEPCGHCLIINNVNFCRESGLRTRTGSNIDCEKLRRRFSSLHFMVEVKGDLTAKKMVLALLELAQQDHGALDCCVVVILSHGCQASHLQFPGAVYGTDGCPVSVEKIVNIFNGTSCPSLGGKPKLFFIQACGGEQKDHGFEVASTSPEDESPGSNPEPDATPFQEGLRTFDQLDAISSLPTPSDIFVSYSTFPGFVSWRDPKSGSWYVETLDDIFEQWAHSEDLQSLLLRVANAVSVKGIYKQMPGPFNFLRKKLFFKTS",catalytically inactive
8,"^402GCFNF^406ISAQT: caspase-9 with 402-406 residues replaced by those of Caspase-10 (protein, UniProt P55211 1-416, looked up, variant G402I C403S F404A N405Q F406T, residues from caspase-10) MDEADRRLLRRCRLRLVEELQVDQLWDALLSRELFRPHMIEDIQRAGSGSRRDQARQLIIDLETRGSQALPLFISCLEDTGQDMLASFLRTNRQAAKLSKPTLENLTPVVLRPEIRKPEVLRPETPRPVDIGSGGFGDVGALESLRGNADLAYILSMEPCGHCLIINNVNFCRESGLRTRTGSNIDCEKLRRRFSSLHFMVEVKGDLTAKKMVLALLELAQQDHGALDCCVVVILSHGCQASHLQFPGAVYGTDGCPVSVEKIVNIFNGTSCPSLGGKPKLFFIQACGGEQKDHGFEVASTSPEDESPGSNPEPDATPFQEGLRTFDQLDAISSLPTPSDIFVSYSTFPGFVSWRDPKSGSWYVETLDDIFEQWAHSEDLQSLLLRVANAVSVKGIYKQMPISAQTLRKKLFFKTS",reduced basal activity
